The text below walks through data of publication PMC11259198.

Usually stoichiometry N stands for the number of molecules, sites or subunits per partner or assembly.

What all share (assay): SEC
The target in assay [1] is globular N-terminal domain of human apolipoprotein A-I (residue fragment 1–184), Glu34Lys (human).
Assay [2] addresses globular N-terminal domain of human apolipoprotein A-I (residue fragment 1–184), Leu159Arg (human).
Assay [3] concerns the target globular N-terminal domain of human apolipoprotein A-I (residue fragment 1–184), Phe71Tyr (human).
Assay [4] has as its target globular N-terminal domain of human apolipoprotein A-I (residue fragment 1–184), wild type (human).

In assay [1], “globular N-terminal domain of human apolipoprotein A-I (residue fragment 1–184), Glu34Lys (domain or fragment)” came in with a stoichiometry N of 2.
Consider “globular N-terminal domain of human apolipoprotein A-I (residue fragment 1–184), Leu159Arg (domain or fragment)”, for which the stoichiometry N in assay [2] came out at 2.
In the case of “globular N-terminal domain of human apolipoprotein A-I (residue fragment 1–184), Phe71Tyr (domain or fragment)”, the stoichiometry N in assay [3] was 2.
Consider “globular N-terminal domain of human apolipoprotein A-I (residue fragment 1–184), wild type (domain or fragment)”, for which the stoichiometry N in assay [4] came out at 2.
